Assay [1] addresses SARS-CoV-2 receptor binding domain (RBD), His-tagged (SARS-CoV-2, UniProt P0DTC2 319-541). In words: SPR. For orientation: Surface plasmon resonance follows binding to a sensor surface in real time, without labels.
The target in assay [2] is SARS-CoV receptor binding domain (RBD), His-tagged (SARS-CoV, UniProt P59594 306-527). Briefly: SPR.

B1: monkey ACE2 ectodomain fused with mouse Fc (Fc fusion)
chain: QSTIEEQAKTFLDKFNHEAEDLFYQSSLASWNYNTNITEENVQNMNNAGEKWSAFLKEQSTLAQMYPLQEIQNLTVKLQLQALQQNGSSVLSEDKSKRLNTILNTMSTIYSTGKVCNPNNPQECLLLDPGLNEIMEKSLDYNERLWAWEGWRSEVGKQLRPLYEEYVVLKNEMARANHYKDYGDYWRGNYEVNGVDGYDYNRDQLIEDVERTFEEIKPLYEHLHAYVRAKLMNAYPSYISPTGCLPAHLLGDMWGRFWTNLYSLTVPFGQKPNIDVTDAMVNQAWNAQRIFKEAEKFFVSVGLPNMTQGFWENSMLTDPGNVQKVVCHPTAWDLGKGDFRIIMCTKVTMDDFLTAHHEMGHIQYDMAYAAQPFLLRNGANEGFHEAVGEIMSLSAATPKHLKSIGLLSPDFQEDNETEINFLLKQALTIVGTLPFTYMLEKWRWMVFKGEIPKDQWMKKWWEMKREIVGVVEPVPHDETYCDPASLFHVSNDYSFIRYYTRTLYQFQFQEALCQAAKHEGPLHKCDISNSTEAGQKLLNMLKLGKSEPWTLALENVVGAKNMNVRPLLNYFEPLFTWLKDQNKNSFVGWSTDWSPYADQSIKVRISLKSALGDKAYEWNDNEMYLFRSSVAYAMRTYFLEIKHQTILFGEEDVRVADLKPRISFNFYVTAPKNVSDIIPRTEVEEAIRISRSRINDAFRLNDNSLEFLGIQTTLAPPYQSPVT
For orientation: Kd means the equilibrium constant for the complex coming apart. A lower Kd goes with tighter binding. As for B1, the dissociation constant (Kd) in assay [1] was 21.7 nM; in assay [2] it was 69.1 nM.

B2: bovine ACE2 ectodomain fused with mouse Fc (Fc fusion)
chain: QSTTEEQAKTFLEKFNHEAEDLSYQSSLASWNYNTNITDENVQKMNEARAKWSAFYEEQSRMAKTYSLEEIQNLTLKRQLKALQHSGTSALSAEKSKRLNTILNKMSTIYSTGKVLDPNTQECLALEPGLDDIMENSRDYNRRLWAWEGWRAEVGKQLRPLYEEYVVLENEMARANNYEDYGDYWRGDYEVTGAGDYDYSRDQLMKDVERTFAEIKPLYEQLHAYVRAKLMHTYPSYISPTGCLPAHLLGDMWGRFWTNLYSLTVPFEHKPSIDVTEKMENQSWDAERIFKEAEKFFVSISLPYMTQGFWDNSMLTEPGDGRKVVCHPTAWDLGKGDFRIKMCTKVTMDDFLTAHHEMGHIQYDMAYAAQPYLLRNGANEGFHEAVGEIMSLSAATPHYLKALGLLAPDFHEDNETEINFLLKQALTIVGTLPFTYMLEKWRWMVFKGEIPKQQWMEKWWEMKREIVGVVEPLPHDETYCDPACLFHVAEDYSFIRYYTRTIYQFQFHEALCKTAKHEGALFKCDISNSTEAGQRLLQMLRLGKSEPWTLALENIVGIKTMDVKPLLNYFEPLFTWLKEQNRNSFVGWSTEWTPYSDQSIKVRISLKSALGENAYEWNDNEMYLFQSSVAYAMRKYFSEARNETVLFGEDNVWVSDKKPRISFKFFVTSPNNVSDIIPRTEVENAIRLSRDRINDVFQLDDNSLEFLGIQPTLGPPYEPPVT
On to B2, for which the dissociation constant (Kd) is 73.7 nM in assay [1] and 89.8 nM in assay [2].

B3: dog ACE2 ectodomain fused with mouse Fc (Fc fusion)
chain: QSTEDLVKTFLEKFNYEAEELSYQSSLASWNYNINITDENVQKMNNAGAKWSAFYEEQSKLAKTYPLEEIQDSTVKRQLRALQHSGSSVLSADKNQRLNTILNSMSTVYSTGKACNPSNPQECLLLEPGLDDIMENSKDYNERLWAWEGWRSEVGKQLRPLYEEYVALKNEMARANNYEDYGDYWRGDYEEEWENGYNYSRNQLIDDVELTFTQIMPLYQHLHAYVRTKLMDTYPSYISPTGCLPAHLLGDMWGRFWTNLYPLTVPFGQKPNIDVTNAMVNQSWDARKIFKEAEKFFVSVGLPNMTQEFWGNSMLTEPSDSRKVVCHPTAWDLGKGDFRIKMCTKVTMDDFLTAHHEMGHIQYDMAYAAQPFLLRNGANEGFHEAVGEIMSLSAATPNHLKNIGLLPPSFFEDSETEINFLLKQALTIVGTLPFTYMLEKWRWMVFKGEIPKDQWMKTWWEMKRNIVGVVEPVPHDETYCDPASLFHVANDYSFIRYYTRTIYQFQFQEALCQIAKHEGPLHKCDISNSSEAGQKLLEMLKLGKSKPWTYALEIVVGAKNMDVRPLLNYFEPLFTWLKEQNRNSFVGWNTDWSPYADQSIKVRISLKSALGEKAYEWNNNEMYLFRSSIAYAMRQYFSEVKNQTIPFVEDNVWVSDLKPRISFNFSVTSPGNVSDIIPRTEVEEAIRMYRSRINDVFRLDDNSLEFLGIQPTPGPPYEPPVT
B3: the equilibrium dissociation constant (Kd) is 98.9 nM in assay [1] and 20 nM in assay [2].

B4: goat ACE2 ectodomain fused with mouse Fc (Fc fusion)
chain: QSTTEEQAKTFLEKFNHEAEDLSYQSSLASWNYNTNITDENVQKMNEARAKWSAFYEEQSRMARTYSLEEIQNLTLKRQLKALQHSGTSVLSAEKSKRLNMILNKMSTIYSTGKVLDPNTQECLALEPGLDDIMENSRDYNRRLWAWEGWRAEVGKQLRPLYEEYVVLENEMARANNYEDYGDYWRGDYEVTGAGDYDYSRDQLMKDVERTFAEIKPLYEQLHAYVRAKLMNTYPSYISPTGCLPAHLLGDMWGRFWTNLYSLTVPFEHKPSIDVTEKMKNQSWDAERIFKEAEKFFVSIGLPYMTQGFWNNSMLTEPGDGRKVVCHPTAWDLGKGDFRIKMCTKVTMDDFLTAHHEMGHIQYDMAYATQPYLLRNGANEGFHEAVGEIMSLSAATPHYLKALGLLAPDFYEDNETEINFLLKQALTIVGTLPFTYMLEKWRWMVFKGEIPKQQWMEKWWEMKREIVGVVEPLPHDETYCDPACLFHVAEDYSFIRYYTRTIYQFQFHEALCKTAKHEGALFKCDISNSTEAGQRLLQMLRLGKSEPWTLALENIVGIKTMDVKPLLNYFEPLFTWLKEQNRNSFVGWSTEWTPYSDQSIKVRISLKSALGENAYEWNDNEMYLFRSSVAYAMRKYFLEDRNETIPFGEENVWVSDKKPRISFKFFVTSPNNVSDIIPRTEVENAIRLCRDRINDAFQLDDNSLEFLGIQPTLRPPYEPPVT
Turning to B4, the Kd in assay [1] was found to be 157 nM; in assay [2] it was 308 nM.

B5: sheep ACE2 ectodomain fused with mouse Fc (Fc fusion)
chain: QSTTEGQAKTFLEKFNHEAEDLSYQSSLASWNYNTNITDENVQKMNEARAKWSAFYEEQSRMARTYSLEEIQNLTLKRQLKALQHSGTSVLSAEKSKRLNTILNKMSTIYSTGKVLDPNTQECLALEPGLDDIMENSRDYNRRLWAWEGWRAEVGKQLRPLYEEYVVLENEMARANNYEDYGDYWRGDYEVTGAGDYDYSRDQLMKDVERTFEEIKPLYEQLHAYVRAKLMDTYPSYISPTGCLPAHLLGDMWGRFWTNLYSLTVPFEHKPSIDVTEKMKNQSWDAERIFKEAEKFFVSIGLPYMTQGFWDNSMLTEPGDGRKVVCHPTAWDLGKGDFRIKMCTKVTMDDFLTAHHEMGHIQYDMAYATQPYLLRNGANEGFHEAVGEIMSLSAATPHYLKALGLLAPDFYEDNETEINFLLKQALTIVGTLPFTYMLEKWRWMVFKGEIPKQQWMEKWWEMKREIVGVVEPLPHDETYCDPACLFHVAEDYSFIRYYTRTIYQFQFHEALCKTAKHEGALFKCDISNSTEAGQRLLQMLRLGKSEPWTLALENIVGIKTMDVKPLLNYFEPLFTWLKEQNRNSFVGWSTEWTPYSDQSIKVRISLKSALGENAYEWNDNEMYLFRSSVAYAMRKYFLKERNETIPFGEENVWVSDKKPRISFKFFVTSPNNVSDIIPRTEVENAIRLCRDRINDAFQLDDNSLEFLGIQPTLRPPYEPPVT
With B5, the Kd in assay [1] was 137 nM; in assay [2], 157 nM.

(Values after paper PMC7526519 (2020).)
